Results published in US20170137818, “APTAMER INHIBITING BIOLOGICAL ACTIVITY OF AUTOTAXIN BY BINDING WITH AUTOTAXIN, AND USE THEREOF” (RIBOMIC INC., published 2017).

Target: T1, autotaxin (ENPP2/NPP2) (Homo sapiens, UniProt Q13822 Q13822:36-863)
Assay: inhibition; LPA production, 1.0 uM aptamer, ~92% serum, 37C 3 h

Binder	activity
CCTGGACGGAACCAGAATACTTTTGGTCTCCAGG (ssDNA, 2'-OMe C1,G5,C7,G9,C13,A14,G15,A19,C20,A32,G33,G34; idT 5' and 3') [12(44)]	87 % inhibition
CCTGGACGGAACCAGAATACTTTTGGTCTCCAGG (ssDNA, 2'-OMe C1,C7,G9,C13,A14,G15,A19,C20,A32,G33,G34; idT 5' and 3') [12(46)]	83 % inhibition
CCTGGACGGAACCAGAATACTTTTGGTCTCCAGG (ssDNA, 2'-OMe C1,G5,C7,G9,C12,A14,G15,A19,C20,A32,G33,G34; idT 5' and 3') [12(43)]	85 % inhibition
CCTGGACGGAACCAGAATACTTTTGGTCTCCAGG (ssDNA, 2'-OMe C1,C7,G9,C12,A14,G15,A19,C20,A32,G33,G34; idT 5' and 3') [12(45)]	86 % inhibition
CCTGGACGGAACCAGAATACTTTTGGTCTCCAGG (ssDNA, 2'-OMe C1,G5,C7,G9,C12,C13,A14,G15,A19,C20,C30,A32,G33,G34; idT 5' and 3') [12(47)]	57 % inhibition

Target: T1, autotaxin (ENPP2/NPP2)
Assay: inhibition; LPA production, 0.025 uM aptamer, ~92% serum, 37C 3 h

Binder	activity
CCTGGACGGAACCAGAATACTTTTGGTCTCCAGG (ssDNA, 2'-OMe C7,G9,A14,G15,A19,C20,A32,G33,G34; P-methyl C1,G5,G8,C12,G15,A16,T21,T23,C28,C30,C31; idT 5' and 3') [12(140)]	29 % inhibition
CCTGGACGGAACCAGAATACTTTTGGTCTCCAGG (ssDNA, 2'-OMe C7,G9,A14,G15,A19,C20,A32,G33,G34; P-methyl C1,G5,G8,G9,C12,A16,T21,T23,C28,C30,C31; idT 5' and 3') [12(142)]	44 % inhibition
CCTGGACGGAACCAGAATACTTTTGGTCTCCAGG (ssDNA, 2'-OMe C7,G9,A14,G15,A19,C20,A32,G33,G34; P-methyl C1,G5,G8,C12,A16,C20,T21,T23,C28,C30,C31; idT 5' and 3') [12(138)]	44 % inhibition
CCTGGACGGAACCAGAATACTTTTGGTCTCCAGG (ssDNA, 2'-OMe C7,G9,A14,G15,A19,C20,A32,G33,G34; P-methyl C1,G5,G8,C12,A16,T21,T23,C28,C30,C31,G33; idT 5' and 3') [12(136)]	17 % inhibition
CCTGGACGGAACCAGAATACTTTTGGTCTCCAGG (ssDNA, 2'-OMe C7,G9,A14,G15,A19,C20,A32,G33,G34; P-methyl C1,G5,G8,C12,A16,T21,T23,C28,C30,C31; 5' 40 kDa PEG (GL2-400GS2) via ssH linker; 3' idT) [12(134)]	69 % inhibition
CCTGGACGGAACCAGAATACTTTTGGTCTCCAGG (ssDNA, 2'-OMe C7,G9,A14,G15,A19,C20,A32,G33,G34; P-methyl C1,G5,G8,C12,A16,T21,T23,C28,C30,C31,A32; idT 5' and 3') [12(137)]	56 % inhibition
CCTGGACGGAACCAGAATACTTTTGGTCTCCAGG (ssDNA, 2'-OMe C7,G9,A14,G15,A19,C20,A32,G33,G34; P-methyl C1,G5,G8,C12,A14,A16,T21,T23,C28,C30,C31; 5' 40 kDa PEG (GL2-400GS2) via ssH linker; 3' idT) [12(146)]	70 % inhibition

Target: T1, autotaxin (ENPP2/NPP2)
Assay: inhibition; NPP2 assay per text (column headed LysoPLD)

Binder	IC50
CCTGGACGGAACCAGAATACTTTTGGTCTCCAGG (ssDNA, 2'-OMe C7,G9,A14,G15,A19,C20,A32,G33,G34; P-isopropoxy between C12 and C13; 5' idT, 3' idT) [12(150)]	0.17 nM
CCTGGACGGAACCAGAATACTTTTGGTCTCCAGG (ssDNA, 2'-OMe C7,G9,A14,G15,A19,C20,A32,G33,G34; P-butoxy between C12 and C13; 5' idT, 3' idT) [12(152)]	0.23 nM
CCTGGACGGAACCAGAATACTTTTGGTCTCCAGG (ssDNA, 2'-OMe C7,G9,A14,G15,A19,C20,A32,G33,G34; P-propoxy between C12 and C13; 5' idT, 3' idT) [12(151)]	0.32 nM

Target: T2, autotaxin (endogenous, human pooled serum) (Homo sapiens, UniProt Q13822 Q13822:36-863)
Assay: inhibition; LPA production in serum, 0.10 uM

Binder	activity
CCTGGACGGAACCAGAATACTTTTGGTCTCCAGG (ssDNA, 2'-OMe C7,G9,A14,G15,A19,C20,A32,G33,G34; P-methyl C12 (between C12 and C13); 5' idT, 3' idT) [12(61)]	91 % inhibition
CCTGGACGGAACCAGAATACTTTTGGTCTCCAGG (ssDNA, 2'-OMe C7,G9,A14,G15,A19,C20,A32,G33,G34; P-methyl G8; 5' 40 kDa PEG via ssH linker, 3' idT) [12(131)]	91 % inhibition
CCTGGACGGAACCAGAATACTTTTGGTCTCCAGG (ssDNA, 2'-OMe C7,G9,A14,G15,A19,C20,A32,G33,G34; P-methyl G8; 5' idT, 3' idT) [12(92)]	91 % inhibition
CCTGGACGGAACCAGAATACTTTTGGTCTCCAGG (ssDNA, 2'-OMe C7,G9,A14,G15,A19,C20,A32,G33,G34; PS between G9 and A10; 5' idT, 3' idT) [12(105)]	25 % inhibition
CCTGGACGGAACCAGAATACTTTTGGTCTCCAGG (ssDNA, 2'-OMe C7,G9,A14,G15,A19,C20,A32,G33,G34; P-methyl G8,C12; 5' idT, 3' idT) [12(118)]	98 % inhibition
CCTGGACGGAACCAGAATACTTTTGGTCTCCAGG (ssDNA, 2'-OMe C7,G9,A14,G15,A19,C20,A32,G33,G34; P-methyl T27; 5' idT, 3' idT) [12(97)]	7 % inhibition
CCTGGACGGAACCAGAATACTTTTGGTCTCCAGG (ssDNA, 2'-OMe C7,G9,A14,G15,A19,C20,A32,G33,G34; PS between G8 and G9; 5' idT, 3' idT) [12(77)]	88 % inhibition
CCTGGACGGAACCAGAATACTTTTGGTCTCCAGG (ssDNA, 2'-OMe C7,G9,A14,G15,A19,C20,A32,G33,G34; P-methyl G8,C12,C28; 5' idT, 3' idT) [12(119)]	97 % inhibition

Target: T1, autotaxin (ENPP2/NPP2)
Assay: inhibition; LPA production, 0.20 uM aptamer, ~92% serum, 37C 3 h

Binder	activity
CCTGGACGGAACCAGAATACTTTTGGTCTCCAGG (ssDNA, 2'-OMe C7,G9,A14,G15,A19,C20,A32,G33,G34; 5' 80 kDa PEG (GL4-800GS2) via ssH linker; 3' idT) [12(52)]	92 % inhibition
CCTGGACGGAACCAGAATACTTTTGGTCTCCAGG (ssDNA, 2'-OMe C7,G9,A14,G15,A19,C20,A32,G33,G34; 5' 80 kDa PEG (GL2-800TS) via ssH linker; 3' idT) [12(51)]	91 % inhibition
CCTGGACGGAACCAGAATACTTTTGGTCTCCAGG (ssDNA, 2'-OMe C7,G9,A14,G15,A19,C20,A32,G33,G34; 5' 40 kDa PEG (GL2-400GS2) via ssH linker; 3' C6 spacer) [12(56)]	93 % inhibition
CCTGGACGGAACCAGAATACTTTTGGTCTCCAGG (ssDNA, 2'-OMe C7,G9,A14,G15,A19,C20,A32,G33,G34; 5' C12 spacer; 3' idT) [12(55)]	91 % inhibition
CCTGGACGGAACCAGAATACTTTTGGTCTCCAGG (ssDNA, 2'-OMe C7,G9,A14,G15,A19,C20,A32,G33,G34; 5' 40 kDa PEG (GL2-400GS2) via ssH linker; 3' C12 spacer) [12(57)]	93 % inhibition
CCTGGACGGAACCAGAATACTTTTGGTCTCCAGG (ssDNA, 2'-OMe C7,G9,A14,G15,A19,C20,A32,G33,G34; 5' idT; 3' C12 spacer) [12(54)]	89 % inhibition
CCTGGACGGAACCAGAATACTTTTGGTCTCCAGG (ssDNA, 2'-OMe C7,G9,A14,G15,A19,C20,A32,G33,G34; 5' 80 kDa PEG (GL4-800TS) via ssH linker; 3' idT) [12(53)]	92 % inhibition

Target: T2, autotaxin (endogenous, human pooled …)
Assay: inhibition; LPA production in serum, 1.0 uM

Binder	activity
CCTGGACGGAACCAGAATACTTTTGGTCTCCAGG (ssDNA, 2'-OMe C1,G5,C7,G9,C12,C13,A14,G15,A19,C20,A32,G33,G34; 5' idT, 3' idT) [12(42)]	68 % inhibition
CCTGGACGGAACCAGAATACTTTTGGTCTCCAGG (ssDNA, 2'-OMe C1,G5,C7,G9,C12,C13,A14,G15,A19,C20,A32,G33,G34; 5' 40 kDa PEG via ssH linker, 3' idT) [12(49)]	58 % inhibition

Target: T2, autotaxin (endogenous, human pooled …)
Assay: inhibition; LPA production in serum, 0.025 uM

Binder	activity
CCTGGACGGAACCAGAATACTTTTGGTCTCCAGG (ssDNA, 2'-OMe C7,G9,A14,G15,A19,C20,A32,G33,G34; P-methyl G8,C12,C28; 5' 40 kDa PEG via ssH linker, 3' idT) [12(133)]	90 % inhibition
CCTGGACGGAACCAGAATACTTTTGGTCTCCAGG (ssDNA, 2'-OMe C7,G9,A14,G15,A19,C20,A32,G33,G34; P-methyl C1,G5,G8,C12,A16,A19,T21,T23,C28,C30,C31; 5' 40 kDa PEG via ssH linker, 3' idT) [12(145)]	82 % inhibition
CCTGGACGGAACCAGAATACTTTTGGTCTCCAGG (ssDNA, 2'-OMe C7,G9,A14,G15,A19,C20,A32,G33,G34; P-methyl C1,G5,G8,C12,A16,T21,T23,C28,C30,C31,G34; 5' 40 kDa PEG via ssH linker, 3' idT) [12(144)]	87 % inhibition
CCTGGACGGAACCAGAATACTTTTGGTCTCCAGG (ssDNA, 2'-OMe C7,G9,A14,G15,A19,C20,A32,G33,G34; P-methyl C1,G5,G8,C12,A16,T21,T23,C28,C30,C31,G34; 5' idT, 3' idT) [12(135)]	50 % inhibition
CCTGGACGGAACCAGAATACTTTTGGTCTCCAGG (ssDNA, 2'-OMe C7,G9,A14,G15,A19,C20,A32,G33,G34; P-methyl C1,G5,G8,C12,A14,A16,A19,T21,T23,C28,C30,C31,G34; 5' 40 kDa PEG via ssH linker, 3' idT) [12(147)]	70 % inhibition
CCTGGACGGAACCAGAATACTTTTGGTCTCCAGG (ssDNA, 2'-OMe C7,G9,A14,G15,A19,C20,A32,G33,G34; P-methyl C1,G5,G8,C12,A16,A19,T21,T23,C28,C30,C31; 5' idT, 3' idT) [12(139)]	71 % inhibition
CCTGGACGGAACCAGAATACTTTTGGTCTCCAGG (ssDNA, 2'-OMe C7,G9,A14,G15,A19,C20,A32,G33,G34; P-methyl C1,G5,G8,C12,A16,T21,T23,C28,C30,C31; 5' idT, 3' idT) [12(132)]	59 % inhibition
CCTGGACGGAACCAGAATACTTTTGGTCTCCAGG (ssDNA, 2'-OMe C7,G9,A14,G15,A19,C20,A32,G33,G34; P-methyl C1,G5,G8,C12,A14,A16,T21,T23,C28,C30,C31; 5' idT, 3' idT) [12(141)]	56 % inhibition

Target: T1, autotaxin (ENPP2/NPP2)
Assay: inhibition; NPP2 assay, 37 C

Binder	IC50
CGCTGGGGTACGCTCGGAACCGAGGCAATTGGTCAGCG (ssDNA) [SEQ 26 aptamer]	440 nM
GGGACGGAACCAGAATACTTTTGGTCTCCC (ssDNA) [SEQ 14 aptamer]	42 nM
TGGACGGAACCAGAATACTTTTGGTCTCCA (ssDNA) [SEQ 13 aptamer]	110 nM
SEQ 20 aptamer (ssDNA) DNA: ACACTCACAGGCGCTGGGGTACGCTCGGAACCGAGGCAATTGGTCAGCGTGCATGGCCGCTAGT	37 nM
SEQ 24 aptamer (ssDNA) DNA: ACACTCACAGGCGCTGGCGAGTCGGAACCGAGCCGATTGGTCACTCGCGTGCATGGCCGCTAGT	32 nM
SEQ 9 aptamer (ssDNA) DNA: GTGGTCTAGCTGTACTCAGGCCGGAACCGGTGAAATTGGTCGCCTAATAAGCGAAATCCACAGTCAACGAGCTA	36 nM
SEQ 23 aptamer (ssDNA) DNA: ACACTCACAGGCGCTGGCACGGACCGGAACCGGGACGCTCGGTCGACCGTGCATGGCCGCTAGT	75 nM

Target: T1, autotaxin (ENPP2/NPP2)
Assay: inhibition; LysoPLD assay, 2 mM 14:0 LPC, 2.1 nM autotaxin, 37 C

Binder	IC50
CCTGGACGGAACCAGAATACTTTTGGTCTCCAGG (ssDNA, 2'-OMe C7,G9,A14,G15,A19,C20,A32,G33,G34; P-methyl C1,G5,G8,C12,A16,T21,T23,C28,C30,C31,G34; 5' 40 kDa PEG via ssH linker, 3' idT) [12(144)]	1.6 nM
CCTGGACGGAACCAGAATACTTTTGGTCTCCAGG (ssDNA, 2'-OMe C7,G9,A14,G15,A19,C20,A32,G33,G34; P-methyl G5,G8,C12,A16,T21,T23,C28,C30,C31,G34; 5' idT, 3' idT) [12(149)]	6.1 nM
